Paper PMC2909130 (Biochemistry, 2010)
Positions count from the first letter of the chain named. In names and notes the source's numbering stands.

B1: ArsD109/C12A/C13A/C39S (domain or fragment, Escherichia coli (plasmid R773), UniProt P46003 1-109, looked up)
chain: MKTLMVFDPAMAASTGVCGTDVDQALVDFSTDVQWLKQSGVQIERFNLAQQPMSFVQNEKVKAFIEASGAEGLPLLLLDGETVMAGRYPKRAELARWFGIPLDKVGLAP
B2: ArsD109 (ArsD arsenic metallochaperone of plasmid R773, residues 1-109, wild type) (domain or fragment, Escherichia coli (plasmid R773), UniProt P46003 1-109, looked up)
chain: B1 chain with A12C, A13C, S39C

Target: the molecule itself
Test: crystal structure

| Protein | binding result |
| --- | --- |
| B1 | binds |
| B2 | binds |
